For assay [1], the target named is Giardia lamblia macrophage migration inhibitory factor (Giardia lamblia ATCC 50803). Kind of assay: SEC.
For assay [2] the target is unchanged. Kind of assay: crystal structure.

As for “Giardia lamblia macrophage migration inhibitory factor (natural protein)”, the stoichiometry N in assay [1] and in assay [2] was 3 throughout.

(Values after PMC3826599.)
